This data set concerns MBP-CPEB. The data set can be described thus: EMSA. Conditions: 10 mM HEPES-KOH pH 7.9, 50 mM KCl, 1 mM MgCl2, 0.1 mM ZnCl2, 0.1% NP-40, 1 mM DTT, 2 ug yeast tRNA, 2 ug BSA, 12 U RNaseOUT, 10 uL, 15 fmol RNA, room …. On the technique in general: A gel shift assay detects complexes by their altered migration in electrophoresis.

Usually Kd stands for the free concentration of one partner at which half of the binding sites on the other are occupied at equilibrium, for simple one-to-one binding. With “c-myc pA2 ncCPE2 only (cCPE and ncCPE1 mutated)”, the Kd (low affinity, Kd lower bound) was above 1000 nM.

For the substance “c-myc pA2 ncCPE1 only (cCPE and ncCPE2 mutated)”, the Kd was determined as 890 nM.

Where the note is “no second CPEB binding”, c-myc pA2 ncCPE1/2 (cCPE mutated) came in with an equilibrium dissociation constant (Kd) of 891 nM.

“c-myc pA2 cCPE only (ncCPE1 and ncCPE2 mutated)”: the Kd is 212 nM.

“c-myc 3'UTR pA2 wild type (cCPE + ncCPE1 + ncCPE2)”: where the note is “two CPEB molecules bound (second shift)”, the Kd was 279 nM.

Values taken from PMC10572585.
